In PMC7854383, “Cellular Uptake of Psychostimulants – Are High- and Low-Affinity Organic Cation Transporters Drug Traffickers?” (Frontiers in Pharmacology, 2021):

What was measured:
[1] = molecular target: T1, OCT2 (Homo sapiens, UniProt O15244); assay: Screening of cellular uptake at 1 µM, OCT2-overexpressing HEK293 cells over empty vector control cells; settings: 2 min
T1 sequence (O15244 1-555 S270A): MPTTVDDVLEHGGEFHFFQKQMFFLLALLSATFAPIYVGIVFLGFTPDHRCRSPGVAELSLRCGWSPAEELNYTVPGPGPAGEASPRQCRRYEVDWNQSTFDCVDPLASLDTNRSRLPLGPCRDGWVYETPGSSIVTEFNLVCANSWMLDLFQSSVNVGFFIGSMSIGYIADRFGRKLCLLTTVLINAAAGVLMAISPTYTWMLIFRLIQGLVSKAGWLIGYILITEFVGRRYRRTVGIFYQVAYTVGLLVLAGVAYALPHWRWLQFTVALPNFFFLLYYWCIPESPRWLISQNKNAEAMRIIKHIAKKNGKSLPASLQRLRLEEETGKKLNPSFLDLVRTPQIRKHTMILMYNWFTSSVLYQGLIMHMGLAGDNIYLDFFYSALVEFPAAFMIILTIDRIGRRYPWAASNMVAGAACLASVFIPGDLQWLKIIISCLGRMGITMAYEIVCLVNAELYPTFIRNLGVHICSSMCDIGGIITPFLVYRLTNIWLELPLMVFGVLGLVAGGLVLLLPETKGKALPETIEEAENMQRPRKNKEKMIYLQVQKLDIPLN
Text: (§1) Koepsell and Gorbulev (University of Würzburg, Germany).
(§2) Eighteen psychostimulants and hallucinogens were initially screened for their potential to be substrates for different polyspecific OCTs and high-affinity monoamine neurotransmitter transporters (Figure 3), as well as for the efflux transporter MATE2-K (Supplementary Figure S1).

[2] = cited from earlier work
[3] = molecular target: T2, wild-type OCT2 (Homo sapiens, UniProt O15244); assay: Concentration-dependent transport by wild-type OCT2 in HEK293 cells; settings: for vmax: OCT2 WT
T2 sequence (O15244 1-555 S270A): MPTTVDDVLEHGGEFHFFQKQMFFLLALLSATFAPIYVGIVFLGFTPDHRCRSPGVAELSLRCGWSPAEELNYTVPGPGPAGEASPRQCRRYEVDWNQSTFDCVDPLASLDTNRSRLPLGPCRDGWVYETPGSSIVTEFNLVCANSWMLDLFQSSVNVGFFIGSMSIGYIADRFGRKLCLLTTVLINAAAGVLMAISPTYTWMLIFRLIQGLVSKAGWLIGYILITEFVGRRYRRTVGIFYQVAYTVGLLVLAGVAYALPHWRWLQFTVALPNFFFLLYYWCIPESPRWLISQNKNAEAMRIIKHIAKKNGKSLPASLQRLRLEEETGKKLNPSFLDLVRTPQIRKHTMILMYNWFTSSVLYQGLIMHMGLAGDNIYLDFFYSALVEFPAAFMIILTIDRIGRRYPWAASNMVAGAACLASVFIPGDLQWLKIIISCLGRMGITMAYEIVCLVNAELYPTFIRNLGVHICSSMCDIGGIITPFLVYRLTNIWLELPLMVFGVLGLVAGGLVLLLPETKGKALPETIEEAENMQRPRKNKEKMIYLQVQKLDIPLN

[4] = molecular target: T3, OCT2 variant A270S (Homo sapiens, UniProt O15244); assay: Concentration-dependent transport by OCT2 variant A270S in HEK293 cells; settings: OCT2 A270S
T3 sequence (O15244 1-555): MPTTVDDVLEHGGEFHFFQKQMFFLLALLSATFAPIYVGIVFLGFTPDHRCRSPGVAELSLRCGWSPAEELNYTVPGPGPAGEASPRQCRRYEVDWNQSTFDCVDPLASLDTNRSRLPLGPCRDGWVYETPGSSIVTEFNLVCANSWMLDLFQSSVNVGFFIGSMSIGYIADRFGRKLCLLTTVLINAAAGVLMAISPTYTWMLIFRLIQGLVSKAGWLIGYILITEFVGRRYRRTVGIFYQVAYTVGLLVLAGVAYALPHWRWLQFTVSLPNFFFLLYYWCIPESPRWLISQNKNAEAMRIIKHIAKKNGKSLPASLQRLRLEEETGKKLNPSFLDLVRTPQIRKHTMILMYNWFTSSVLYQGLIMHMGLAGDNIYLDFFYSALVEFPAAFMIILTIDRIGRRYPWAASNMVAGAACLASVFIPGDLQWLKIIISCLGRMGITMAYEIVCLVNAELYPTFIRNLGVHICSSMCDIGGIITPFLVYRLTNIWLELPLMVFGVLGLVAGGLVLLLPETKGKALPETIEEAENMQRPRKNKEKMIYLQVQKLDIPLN

[5] = molecular target: SERT (Homo sapiens, UniProt P31645); assay: Screening of cellular uptake at 1 µM, SERT-overexpressing HEK293 cells over empty vector control cells; assay type: in vitro ADME; settings: 2 min
Chain of SERT (P31645 whole entry): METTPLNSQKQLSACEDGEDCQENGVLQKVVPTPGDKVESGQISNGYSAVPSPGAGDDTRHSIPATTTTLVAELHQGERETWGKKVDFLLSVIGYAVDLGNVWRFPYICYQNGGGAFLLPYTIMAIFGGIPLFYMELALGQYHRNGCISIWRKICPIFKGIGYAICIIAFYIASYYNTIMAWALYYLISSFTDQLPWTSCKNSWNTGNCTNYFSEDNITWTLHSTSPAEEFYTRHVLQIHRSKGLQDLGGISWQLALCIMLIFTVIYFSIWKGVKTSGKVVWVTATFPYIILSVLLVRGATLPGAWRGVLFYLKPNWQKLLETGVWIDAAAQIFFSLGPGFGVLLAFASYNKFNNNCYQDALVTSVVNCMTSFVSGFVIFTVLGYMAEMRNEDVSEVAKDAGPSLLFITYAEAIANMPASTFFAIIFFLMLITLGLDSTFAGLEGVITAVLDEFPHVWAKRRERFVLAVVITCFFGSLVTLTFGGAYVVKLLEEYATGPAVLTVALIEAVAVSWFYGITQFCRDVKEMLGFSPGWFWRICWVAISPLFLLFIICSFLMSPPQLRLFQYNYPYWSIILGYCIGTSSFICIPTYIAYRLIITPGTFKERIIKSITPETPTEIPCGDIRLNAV

[6] = molecular target: T4, OCT3 (Homo sapiens, UniProt O75751); assay: Screening of cellular uptake at 1 µM, OCT3-overexpressing HEK293 cells over empty vector control cells; assay type: in vitro ADME; settings: 2 min
T4 construct: Koepsell and Gorbulev (University of Würzburg); host or cells: HEK293
T4 sequence (O75751 1-556): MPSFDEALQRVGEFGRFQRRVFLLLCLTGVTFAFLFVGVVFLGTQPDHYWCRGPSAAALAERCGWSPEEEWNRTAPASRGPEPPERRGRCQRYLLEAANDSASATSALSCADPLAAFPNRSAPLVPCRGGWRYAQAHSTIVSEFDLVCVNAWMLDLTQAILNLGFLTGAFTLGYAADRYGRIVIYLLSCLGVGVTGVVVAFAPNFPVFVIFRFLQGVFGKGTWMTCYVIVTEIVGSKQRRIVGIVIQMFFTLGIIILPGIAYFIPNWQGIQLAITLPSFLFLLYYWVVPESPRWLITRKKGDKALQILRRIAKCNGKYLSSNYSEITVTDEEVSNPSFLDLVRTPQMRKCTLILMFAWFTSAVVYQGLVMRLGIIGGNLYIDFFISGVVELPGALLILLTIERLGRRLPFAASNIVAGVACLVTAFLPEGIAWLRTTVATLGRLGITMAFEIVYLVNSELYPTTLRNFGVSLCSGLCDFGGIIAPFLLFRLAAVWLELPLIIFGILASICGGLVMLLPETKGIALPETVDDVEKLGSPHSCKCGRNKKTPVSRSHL
Text: as §1, §2

[7] = substrate: CN(C)CCc1c[nH]c2ccccc12; assay: not read; settings: pH 7.4
[8] = substrate: CNC(C)Cc1ccc(OC)cc1; assay: not read; settings: pH 7.4
[9] = substrate: CN[C@@H](C)[C@H](O)c1ccccc1; assay: not read; settings: pH 7.4, 37.0 °C
[10] = substrate: CN[C@@H](C)Cc1ccccc1; assay: not read; settings: other: OCT2 A270S; pH 7.4; 37.0 °C
[11] = substrate: COc1cc(CCN)cc(OC)c1OC; assay: not read; settings: other: OCT1*1 (WT); net transport, 2 min; pH 7.4; 37.0 °C

**Q.** For `CN[C@@H](C)Cc1ccccc1` [Methylamphetamine], which “ratio of uptake in transporter-transfected cells over empty vector control cells” value (“ratio of uptake” for short) [1] is on record?
**A.** The value was 4- to 6 fold.

**Q.** And the renal elimination ([2]; ref Toennes and Kauert, 2002, www.dosing.de and www.drugbank.ca)?
**A.** Its renal elimination is 30–54%.

**Q.** What about the vmax ([3]; listed as Methamphetamine) of the same molecule?
**A.** The vmax was 70.7 (± 8.3) pmol × mg protein^-1 × min^-1.

**Q.** What about the vmax ([3]; listed as methamphetamine) of the same molecule?
**A.** Its vmax is 70.7 ± 8.3 pmol × mg protein^-1 × min^-1.

**Q.** And the Km at 2 min ([3]; human, pH 7.4)?
**A.** The Km at 2 min was 11.9 µM.

**Q.** What about the vmax [4] of the same molecule?
**A.** Its vmax is 34.5 (± 8.5) pmol × mg protein^-1 × min^-1.

**Q.** With `CNC(C)Cc1ccc(OC)cc1` (stereo not shown) [PMMA, para-methoxymethamphetamine] as the molecule, how does the “ratio of uptake” value [1] read?
**A.** The value was “approximately 3 fold”.

**Q.** And the “ratio of uptake” value [5]?
**A.** Its value is “slightly higher (albeit still low) uptake”.

**Q.** Which “ratio of uptake” value [5] does the source give for `COc1ccc(CC(C)N)cc1` (stereo not shown) [PMA, para-methoxyamphetamine] here?
**A.** The value was “slightly higher (albeit still low) uptake”.

**Q.** Which results are given for `CN(C)CCc1c[nH]c2ccccc12` [DMT, dimethyltryptamine]?
**A.** ratio of uptake in transporter-transfected cells over empty vector control cells [1]: approximately 3 fold; excreted unchanged in urine ([2]; following intramuscular administration, ref Sitaram et al., 1987, Barker, 2018): 0.16%

**Q.** For `C[C@H](N)C(=O)c1ccccc1` [Cathinone], which “renal elimination (unchanged in urine)” value ([2]; ref Kalix and Braenden, 1985, Toennes and Kauert, 2002) is on record?
**A.** The value was 2–7%.

**Q.** Which “ratio of uptake” value [6] does the source give for `CC(N)Cc1ccccc1` (stereo not shown) [Amphetamine] here?
**A.** The value was “does not appear to be a substrate”.

B1: wild-type OCT2 (Homo sapiens; S270A) (protein)
chain: MPTTVDDVLEHGGEFHFFQKQMFFLLALLSATFAPIYVGIVFLGFTPDHRCRSPGVAELSLRCGWSPAEELNYTVPGPGPAGEASPRQCRRYEVDWNQSTFDCVDPLASLDTNRSRLPLGPCRDGWVYETPGSSIVTEFNLVCANSWMLDLFQSSVNVGFFIGSMSIGYIADRFGRKLCLLTTVLINAAAGVLMAISPTYTWMLIFRLIQGLVSKAGWLIGYILITEFVGRRYRRTVGIFYQVAYTVGLLVLAGVAYALPHWRWLQFTVALPNFFFLLYYWCIPESPRWLISQNKNAEAMRIIKHIAKKNGKSLPASLQRLRLEEETGKKLNPSFLDLVRTPQIRKHTMILMYNWFTSSVLYQGLIMHMGLAGDNIYLDFFYSALVEFPAAFMIILTIDRIGRRYPWAASNMVAGAACLASVFIPGDLQWLKIIISCLGRMGITMAYEIVCLVNAELYPTFIRNLGVHICSSMCDIGGIITPFLVYRLTNIWLELPLMVFGVLGLVAGGLVLLLPETKGKALPETIEEAENMQRPRKNKEKMIYLQVQKLDIPLN
**Q.** Which results are given for B1?
**A.** Km ([7]; other: OCT2 WT): 13.0 (± 3.7) μM; Vmax ([7]; other: OCT2 WT): 296.7 (± 23.3) pmol × mg protein^-1 × min^-1; Km ([8]; other: OCT2 WT): 7.9 (± 2.6) μM; Vmax ([8]; other: OCT2 WT): 225.1 (± 19.3) pmol × mg protein^-1 × min^-1; Km ([9]; other: OCT2 WT): 15.7 (± 4.6) μM; Vmax ([9]; other: OCT2 WT): 417.8 (± 35.6) pmol × mg protein^-1 × min^-1

B2: OCT2 variant A270S (Homo sapiens) (protein)
chain: MPTTVDDVLEHGGEFHFFQKQMFFLLALLSATFAPIYVGIVFLGFTPDHRCRSPGVAELSLRCGWSPAEELNYTVPGPGPAGEASPRQCRRYEVDWNQSTFDCVDPLASLDTNRSRLPLGPCRDGWVYETPGSSIVTEFNLVCANSWMLDLFQSSVNVGFFIGSMSIGYIADRFGRKLCLLTTVLINAAAGVLMAISPTYTWMLIFRLIQGLVSKAGWLIGYILITEFVGRRYRRTVGIFYQVAYTVGLLVLAGVAYALPHWRWLQFTVSLPNFFFLLYYWCIPESPRWLISQNKNAEAMRIIKHIAKKNGKSLPASLQRLRLEEETGKKLNPSFLDLVRTPQIRKHTMILMYNWFTSSVLYQGLIMHMGLAGDNIYLDFFYSALVEFPAAFMIILTIDRIGRRYPWAASNMVAGAACLASVFIPGDLQWLKIIISCLGRMGITMAYEIVCLVNAELYPTFIRNLGVHICSSMCDIGGIITPFLVYRLTNIWLELPLMVFGVLGLVAGGLVLLLPETKGKALPETIEEAENMQRPRKNKEKMIYLQVQKLDIPLN
**Q.** What does the source list for B2?
**A.** Km ([7]; other: OCT2 A270S): 14.2 (± 7.9) μM; Vmax ([7]; other: OCT2 A270S): 164.2 (± 25.9) pmol × mg protein^-1 × min^-1; Km ([8]; other: OCT2 A270S): 14.4 (± 8.6) μM; Vmax ([8]; other: OCT2 A270S): 172.1 (± 31.5) pmol × mg protein^-1 × min^-1; Km [10]: 24.3 (± 17.0) μM; Km ([9]; other: OCT2 A270S): 14.7 (± 4.1) μM; Vmax ([9]; other: OCT2 A270S): 229.5 (± 18.2) pmol × mg protein^-1 × min^-1

B3: OCT1*1 (WT) (Homo sapiens) (protein)
chain: MPTVDDILEQVGESGWFQKQAFLILCLLSAAFAPICVGIVFLGFTPDHHCQSPGVAELSQRCGWSPAEELNYTVPGLGPAGEAFLGQCRRYEVDWNQSALSCVDPLASLATNRSHLPLGPCQDGWVYDTPGSSIVTEFNLVCADSWKLDLFQSCLNAGFLFGSLGVGYFADRFGRKLCLLGTVLVNAVSGVLMAFSPNYMSMLLFRLLQGLVSKGNWMAGYTLITEFVGSGSRRTVAIMYQMAFTVGLVALTGLAYALPHWRWLQLAVSLPTFLFLLYYWCVPESPRWLLSQKRNTEAIKIMDHIAQKNGKLPPADLKMLSLEEDVTEKLSPSFADLFRTPRLRKRTFILMYLWFTDSVLYQGLILHMGATSGNLYLDFLYSALVEIPGAFIALITIDRVGRIYPMAMSNLLAGAACLVMIFISPDLHWLNIIIMCVGRMGITIAIQMICLVNAELYPTFVRNLGVMVCSSLCDIGGIITPFIVFRLREVWQALPLILFAVLGLLAAGVTLLLPETKGVALPETMKDAENLGRKAKPKENTIYLKVQTSEPSGT
**Q.** With B3 as the molecule, how does the Km [11] read?
**A.** Its Km is 24.3 (±6.3) µM.

**Q.** And the Vmax [11]?
**A.** The Vmax was 0.000642 µmol/min/mg.
